From patent US20210386836

B1: PrtI(ProB) (protein)
chain: AIGETSVQNVKVSVAKNESDSQKFNNSQNLEQKTPQAAAANQNGSQVQNDHTETQLQNQQTTQSQVTQAHTEENNASSIPEPANQADHVKGNVQSAWDQGYKGQNTVVAVIDSGADTSHKDFQTMPSNPKLKQEDVQSKIDQQGYGKYVNEKFPYVYNYADRDNDYIKSDDNNQXNDSPHGQHVSGIIAADGHPEGDQQYVVGVAPEAQLMQLRVFGQFSDEKTDDVARAIYDATNLGADVIQMSLGQGVADQQLTNIEQKAVQYAIDHGVFVSISASNNGNSASVDNPSKVTAKGYGSGSEAGNYEPLNSGTVANPGASKNALTVAAETSGTGKDSDMASFSSWGPLSDFSLKPDLSAPGYQVVSTVNDNQYQTMSGTSMAGPFAAGSAALVIQRLKQTNPELKGAELVAATKALLMNSAKVQTQNGYTTPVSPRRQGAGQIDVGAATANPVYVTAADGTSSLSLRQVDEKTTFTLTFHNLTDQEQSYSFNDLGGGYTEQRDPDSGVFHEVQLAGAHVNGVGNFTLAPKEVKDLQYTLDLQGLNKNQPVEGWLHFTNDKDKSTVVVPYLAYYGDLTSENVFDQNANEEKPDIQGNRFVNENNYPLGVTDQESLKQLVNVDSDYNWQEVAKLYESGKVAFSPNDDHQSDLIKPYAYLKQNVKDLKVEILDAKGNVVRVVSDVQGVDKSYDESGVTKDASLSVSMRDNPDAFEWDGKVYDTKTGQMVTAPDGQYTYRFVATLWNEGPNQKQTADFPVVVDTQAPSLSVKYDSATHTLSGNYEDKGAGFTDYSYVTVQVNDKVFGYKLNEGESGFDNSEKTKGHFNFTLSSDALDALSGSLNKVSVTLSDVANNTTVKTVDVPAVKDQPAVSVWNATEGVEFNKNSKDYNKENDTYTLYGSAAQDFYLNGALVQVRDGKYEVPVKTTTQDLVFSTDQAGKNVLKSFTTFTPKAFFNWQNVDGFDGNFGVNIYSVKTNDPNNAVVQAAVPLGKNVKAYAQDYFTGEVYKGQVENGVATFHVHTSINQGEDGIFKRALLTGWSEVDGPAYNDKQVTSKAGVASSNHLGVYYTTDKVNRKVYTDRADLGVDVQDEAADLSSFGPTAYPGHALADLTTRTDPNPAIHFDYLNDNDTTRFGQNAVTDGYYDSVTKKFTVTGHVDPEVKSLTVLGDSSDENAPQNQVKLGKDGKFSFSFTTENVGQRPVAYIYTDQNGQKVRGTLNVVLDTVAPTLNVDQVNGNELEVKTNNPLFKLSGVVNDNLDGYRLYVNGNNIYREFLNSGYNKLAGLNTDGTDVNPYGPHNFEESFNLNDDNNQPTTHVFTIYVVDQVGNKVEKKIAVNYDPDYVA
modifications: not fully specified; X: residue not identified in the source
Factor XIII
  digestion (SDS-PAGE): did not digest
HSA, P02768
  digestion (SDS-PAGE): did not digest
BSA, P02769
Chain of BSA, P02769 (P02769 25-607): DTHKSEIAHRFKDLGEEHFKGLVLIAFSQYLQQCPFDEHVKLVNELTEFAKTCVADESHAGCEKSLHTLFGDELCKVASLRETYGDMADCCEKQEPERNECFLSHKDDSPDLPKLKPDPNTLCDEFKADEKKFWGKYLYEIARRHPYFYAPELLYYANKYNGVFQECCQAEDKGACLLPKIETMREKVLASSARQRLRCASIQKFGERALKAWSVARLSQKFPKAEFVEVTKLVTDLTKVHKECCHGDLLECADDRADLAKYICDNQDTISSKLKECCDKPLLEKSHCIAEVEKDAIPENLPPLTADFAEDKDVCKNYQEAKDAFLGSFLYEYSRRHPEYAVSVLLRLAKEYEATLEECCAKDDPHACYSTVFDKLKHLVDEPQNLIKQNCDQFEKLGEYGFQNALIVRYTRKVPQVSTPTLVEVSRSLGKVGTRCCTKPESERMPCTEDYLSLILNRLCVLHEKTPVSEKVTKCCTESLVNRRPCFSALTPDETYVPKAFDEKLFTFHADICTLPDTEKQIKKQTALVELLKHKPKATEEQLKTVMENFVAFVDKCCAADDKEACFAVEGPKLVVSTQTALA
  digestion (SDS-PAGE): did not digest
Factor XI
  digestion (SDS-PAGE): did not digest
Mouse C3a, P01027
  protein cleavage assay (SDS-PAGE): has activities against
IL-10
  protein cleavage assay (SDS-PAGE): has activities against

B2: PrtV(Pro-B) (protein)
chain: DTVNGSESVKTEATQASGSSVQDNATAKTTVTTNSNSSNNVSNVQTDTVKEAATSNVDSVASQNQATTAQQAKTTADTADQTVPPTTYKDHVKGNVQTAWDNGYKGQGMVVAVIDSGADTNHKDFSKAPESPAISKEDADKKISELGYGKYASEKFPFVYNYASRDNNWVKDDGPDASEHGQHVAGIIGADGQPNGNERYAVGVAPETQLMMMRVFNDQFADENTDDIAQAIYDAVKLGANVIQMSLGQGVAAANLNDVEQKAVEYATQHGVFVSISASNNGNSASVTGEEVPYKPGGADGNFEPFSSSTVANPGASRNAMTVAAENSVVGAGDDMADFSSWGPLQDFTLKPDVSAPGVSVTSTGNDNRYNTMSGTSMAGPFNAGVAALVMQRLKATTNLNGADLVQATKALIMNTAKPMTQQGYDTPVSPRRQGAGEIDAGAATESPVYVVAADGTSSVSLRKVGDSTQFALTFKNLSDKDQTYTFDDFGGGLTEVRDADTGTFHDVYLAGAHVYGNKTVTVKAGQSATYNFTLSLTGLKENQLVEGWLRFVGNDGQNQLVVPYLAYYGDMTSEDVFDKAANQEGTVYGGNYFVNEDNYPRGVADEDSLKALVNLEGNYNWQQVAKLYQDGKVAFSPNADGKSDLLKPYAFVKQNLKDLKVEVLDKSGKVVRVVADEQGLDKSYYESGVNKDVTLSVSMRNNPNTLAWDGKVYDDKAGEMVNAADGEYTYRYVATLYNDGVNKVQTADYPVVIDTTAPVLSNVKYDAATHTLSFDYKDTGSGFTDYSYAVVKVNDKTFGYKLNDGKNSKFLDAAKTSGTFKAVLGSDTLAALTAAKNALSVAVSDVADNTSTVTLLVNGNNDATTKVSVWNATNGLELDQSSPDYQAATSTYNLRGNATSDFYYNGALVQVDNSGNFVVPVSTSDTAVVFTSDAAGKNVVYKLNTATPKAVFAWQVNNTVKENFGIVLDTVVSNNKDDVVVQAAVTKGDNVEAYARDYFTGAVYKADVKDGLATFHVKVTNNSGRTVLLGWTEVVGPTFNDVQRTSANGVYLGVDTDTENPTPAPAFTSADQLGTNVVQEKADSATIGNPGDLPGHSLKDLTTRADANPDIHFDYLKDNDYNWVGAQAVKDGVYNPSTQVFTLTGKVDPNVKSLVVLGDSYNEDDPVNKVNLNSDGTFSFQFHTAPTSQRPVAYIYTKDDGSTTRGTMELILDTVLPTLSLNNVANLQLDSNGDYQVYTNNKDFSVSGEATDNLDGYRFFFNGDNDYREFHNSGVNFVAEAHQDGSTVTNPYPAYKFSKTFNLADATGETTHVYTLSVVDLTGNTVTRKFYVHY
κ-casein
  casein activity assay (SDS-PAGE): cleaving only α-casein in a limited manner
